Results reported in patent publication US20260201008A1, “SECRETIN-DERIVED GLP1R SELECTIVE AGONISTS” (GUBRA A/S, priority 2023, published 2026).
Each block holds one binder with its values, some of them ahead of it. Numbered stars: 1 amine (or outer) side, 2 acyl side, 3 side chain; on linkers, the order of the positions; unused ones are H or OH. Square brackets hold non-standard residues; d marks the D form. Side chains are listed from the residue outwards. Ends that are not written are not given here. * marks the point of attachment. C20 diacid = O=C(O)CCCCCCCCCCCCCCCCCCC(=O)*; γGlu = O=C(O)[C@H](CCC(=O)[*:2])N[*:1]; AEEA = NCCOCCOCC(=O)O; Aib = CC(C)(N)C(=O)O

Experiments:
[1] = target: human GLP-1 receptor (hGLP1R) (human, UniProt P43220 24-463); test: cell-based or functional assay
[2] = target: human secretin receptor (hSCTR) (human, UniProt P47872 23-440); test: cell-based or functional assay
Sequence of human secretin receptor (hSCTR) (P47872 23-440): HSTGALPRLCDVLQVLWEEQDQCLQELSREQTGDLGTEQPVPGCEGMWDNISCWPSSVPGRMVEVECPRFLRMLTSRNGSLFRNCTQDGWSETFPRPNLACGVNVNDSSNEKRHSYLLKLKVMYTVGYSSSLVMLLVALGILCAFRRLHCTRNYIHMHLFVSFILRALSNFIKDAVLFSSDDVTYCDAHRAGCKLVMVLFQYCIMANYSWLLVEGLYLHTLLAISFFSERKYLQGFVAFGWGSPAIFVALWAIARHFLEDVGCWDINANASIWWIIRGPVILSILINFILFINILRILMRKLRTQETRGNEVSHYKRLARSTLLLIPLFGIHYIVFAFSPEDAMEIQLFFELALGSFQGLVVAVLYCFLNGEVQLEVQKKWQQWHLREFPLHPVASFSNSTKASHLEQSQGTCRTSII

pEC50 hGLPR1 [1]: 10.5 -log M | pEC50 hSCTR [2]: 5.7 -log M
B1: SEQ ID NO: 111 (peptide)
peptide: H[Aib]EGTFTSD[Aib]SFLLEGAALQRFIQWLV-NH2
modifications: N-terminus assumed
SMILES: CC[C@H](C)[C@H](NC(=O)[C@H](Cc1ccccc1)NC(=O)[C@H](CCCNC(=N)N)NC(=O)[C@H](CCC(N)=O)NC(=O)[C@H](CC(C)C)NC(=O)[C@H](C)NC(=O)[C@H](C)NC(=O)CNC(=O)[C@H](CCC(=O)O)NC(=O)[C@H](CC(C)C)NC(=O)[C@H](CC(C)C)NC(=O)[C@H](Cc1ccccc1)NC(=O)[C@H](CO)NC(=O)C(C)(C)NC(=O)[C@H](CC(=O)O)NC(=O)[C@H](CO)NC(=O)[C@@H](NC(=O)[C@H](Cc1ccccc1)NC(=O)[C@@H](NC(=O)CNC(=O)[C@H](CCC(=O)O)NC(=O)C(C)(C)NC(=O)[C@@H](N)Cc1c[nH]cn1)[C@@H](C)O)[C@@H](C)O)C(=O)N[C@@H](CCC(N)=O)C(=O)N[C@@H](Cc1c[nH]c2ccccc12)C(=O)N[C@@H](CC(C)C)C(=O)N[C@H](C(N)=O)C(C)C

pEC50 hGLPR1 [1]: 10.7 -log M | pEC50 hSCTR [2]: 6.2 -log M
Binder: H[Aib]EGTFTSDVSELKELAASQRFLEHLV-NH2 (not fully specified (residue 14)) [SEQ ID NO: 12]

pEC50 hGLPR1 [1]: 9.7 -log M | pEC50 hSCTR [2]: 5.7 -log M
B2: SEQ ID NO: 110 (peptide)
peptide: H[Aib]EGTFTSD[Aib]SVLLEGAALQRFIQWLV-NH2
modifications: N-terminus assumed
SMILES: CC[C@H](C)[C@H](NC(=O)[C@H](Cc1ccccc1)NC(=O)[C@H](CCCNC(=N)N)NC(=O)[C@H](CCC(N)=O)NC(=O)[C@H](CC(C)C)NC(=O)[C@H](C)NC(=O)[C@H](C)NC(=O)CNC(=O)[C@H](CCC(=O)O)NC(=O)[C@H](CC(C)C)NC(=O)[C@H](CC(C)C)NC(=O)[C@@H](NC(=O)[C@H](CO)NC(=O)C(C)(C)NC(=O)[C@H](CC(=O)O)NC(=O)[C@H](CO)NC(=O)[C@@H](NC(=O)[C@H](Cc1ccccc1)NC(=O)[C@@H](NC(=O)CNC(=O)[C@H](CCC(=O)O)NC(=O)C(C)(C)NC(=O)[C@@H](N)Cc1c[nH]cn1)[C@@H](C)O)[C@@H](C)O)C(C)C)C(=O)N[C@@H](CCC(N)=O)C(=O)N[C@@H](Cc1c[nH]c2ccccc12)C(=O)N[C@@H](CC(C)C)C(=O)N[C@H](C(N)=O)C(C)C

pEC50 hGLPR1 [1]: 10.4 -log M | pEC50 hSCTR [2]: 7.8 -log M
B3: SEQ ID NO: 115 (peptide)
peptide: H[Aib]EGTFTSDISRLLEGAALQRFIQWLV-NH2
modifications: N-terminus assumed
SMILES: CC[C@H](C)[C@H](NC(=O)[C@H](Cc1ccccc1)NC(=O)[C@H](CCCNC(=N)N)NC(=O)[C@H](CCC(N)=O)NC(=O)[C@H](CC(C)C)NC(=O)[C@H](C)NC(=O)[C@H](C)NC(=O)CNC(=O)[C@H](CCC(=O)O)NC(=O)[C@H](CC(C)C)NC(=O)[C@H](CC(C)C)NC(=O)[C@H](CCCNC(=N)N)NC(=O)[C@H](CO)NC(=O)[C@@H](NC(=O)[C@H](CC(=O)O)NC(=O)[C@H](CO)NC(=O)[C@@H](NC(=O)[C@H](Cc1ccccc1)NC(=O)[C@@H](NC(=O)CNC(=O)[C@H](CCC(=O)O)NC(=O)C(C)(C)NC(=O)[C@@H](N)Cc1c[nH]cn1)[C@@H](C)O)[C@@H](C)O)[C@@H](C)CC)C(=O)N[C@@H](CCC(N)=O)C(=O)N[C@@H](Cc1c[nH]c2ccccc12)C(=O)N[C@@H](CC(C)C)C(=O)N[C@H](C(N)=O)C(C)C

pEC50 hGLPR1 [1]: 10.8 -log M | pEC50 hSCTR [2]: 5.6 -log M
B4: SEQ ID NO: 112 (peptide)
peptide: H[Aib]EGTFTSDISYLLEGAALQRFIQWLV-NH2
modifications: N-terminus assumed
SMILES: CC[C@H](C)[C@H](NC(=O)[C@H](Cc1ccccc1)NC(=O)[C@H](CCCNC(=N)N)NC(=O)[C@H](CCC(N)=O)NC(=O)[C@H](CC(C)C)NC(=O)[C@H](C)NC(=O)[C@H](C)NC(=O)CNC(=O)[C@H](CCC(=O)O)NC(=O)[C@H](CC(C)C)NC(=O)[C@H](CC(C)C)NC(=O)[C@H](Cc1ccc(O)cc1)NC(=O)[C@H](CO)NC(=O)[C@@H](NC(=O)[C@H](CC(=O)O)NC(=O)[C@H](CO)NC(=O)[C@@H](NC(=O)[C@H](Cc1ccccc1)NC(=O)[C@@H](NC(=O)CNC(=O)[C@H](CCC(=O)O)NC(=O)C(C)(C)NC(=O)[C@@H](N)Cc1c[nH]cn1)[C@@H](C)O)[C@@H](C)O)[C@@H](C)CC)C(=O)N[C@@H](CCC(N)=O)C(=O)N[C@@H](Cc1c[nH]c2ccccc12)C(=O)N[C@@H](CC(C)C)C(=O)N[C@H](C(N)=O)C(C)C

pEC50 hGLPR1 [1]: 10.1 -log M | pEC50 hSCTR [2]: 5.5 -log M
B5: SEQ ID NO: 109 (peptide)
peptide: H[Aib]EGTFTSD[Aib]SELLEGAALQRFIQWLV-NH2
modifications: N-terminus assumed
SMILES: CC[C@H](C)[C@H](NC(=O)[C@H](Cc1ccccc1)NC(=O)[C@H](CCCNC(=N)N)NC(=O)[C@H](CCC(N)=O)NC(=O)[C@H](CC(C)C)NC(=O)[C@H](C)NC(=O)[C@H](C)NC(=O)CNC(=O)[C@H](CCC(=O)O)NC(=O)[C@H](CC(C)C)NC(=O)[C@H](CC(C)C)NC(=O)[C@H](CCC(=O)O)NC(=O)[C@H](CO)NC(=O)C(C)(C)NC(=O)[C@H](CC(=O)O)NC(=O)[C@H](CO)NC(=O)[C@@H](NC(=O)[C@H](Cc1ccccc1)NC(=O)[C@@H](NC(=O)CNC(=O)[C@H](CCC(=O)O)NC(=O)C(C)(C)NC(=O)[C@@H](N)Cc1c[nH]cn1)[C@@H](C)O)[C@@H](C)O)C(=O)N[C@@H](CCC(N)=O)C(=O)N[C@@H](Cc1c[nH]c2ccccc12)C(=O)N[C@@H](CC(C)C)C(=O)N[C@H](C(N)=O)C(C)C

pEC50 hGLPR1 [1]: 10.3 -log M | pEC50 hSCTR [2]: 7.1 -log M
B6: SEQ ID NO: 113 (peptide)
peptide: H[Aib]EGTFTSDIS[Aib]LLEGAALQRFIQWLV-NH2
modifications: N-terminus assumed
SMILES: CC[C@H](C)[C@H](NC(=O)[C@H](Cc1ccccc1)NC(=O)[C@H](CCCNC(=N)N)NC(=O)[C@H](CCC(N)=O)NC(=O)[C@H](CC(C)C)NC(=O)[C@H](C)NC(=O)[C@H](C)NC(=O)CNC(=O)[C@H](CCC(=O)O)NC(=O)[C@H](CC(C)C)NC(=O)[C@H](CC(C)C)NC(=O)C(C)(C)NC(=O)[C@H](CO)NC(=O)[C@@H](NC(=O)[C@H](CC(=O)O)NC(=O)[C@H](CO)NC(=O)[C@@H](NC(=O)[C@H](Cc1ccccc1)NC(=O)[C@@H](NC(=O)CNC(=O)[C@H](CCC(=O)O)NC(=O)C(C)(C)NC(=O)[C@@H](N)Cc1c[nH]cn1)[C@@H](C)O)[C@@H](C)O)[C@@H](C)CC)C(=O)N[C@@H](CCC(N)=O)C(=O)N[C@@H](Cc1c[nH]c2ccccc12)C(=O)N[C@@H](CC(C)C)C(=O)N[C@H](C(N)=O)C(C)C

pEC50 hGLPR1 [1]: 11 -log M | pEC50 hSCTR [2]: 7.4 -log M
Binder: H[Aib]EGTFTSDISYLK([AEEA-AEEA-γGlu-C20 diacid])EEA[Aib]LQRFLEHLV-NH2 (also: K14 lipid also given as C18DA[γE][OEG][OEG]-) [SEQ ID NO: 114]
